Molecular target: full-length recombinant H7 hemagglutinin (rH7) of A/Anhui/1/2013 (H7N9) virus (influenza A virus A/Anhui/1/2013 (H7N9))
Assay: SEC

Substance: full-length recombinant H7 hemagglutinin (rH7) of A/Anhui/1/2013 (H7N9) virus (natural protein)
- stoichiometry N: 3

Reference: PMC4562812
